Positions of bridges follow the written chain, without caps; N, C: chain ends. No end group written: not given here.

Consider five molecules from article PMC6616073 (Frontiers in Pharmacology, 2003).

Common to all, as to assay: radioligand binding
For assay [1], the target named is T1, human α7 nicotinic acetylcholine receptor stably expressed in the rat pituitary tumor-derived cell line GH4C1 (human, UniProt P36544 23-502).
T1 construct: also called α7 nAChR; human α7 nAChR
The conditions noted are these: one partner purified.

Assay [2] concerns the target T2, ligand-binding domain of the human nAChR α9 subunit (human, UniProt Q9UGM1 23-238).
T2 construct: also called α9 LBD; human α9 LBD
The conditions noted are these: both partners purified.

Assay [3] has as its target T1, human α7 nicotinic acetylcholine …. The settings on record: one partner purified. This is another data set of the same source.
Assay [4] has as its target T3, membrane-bound Torpedo californica nicotinic acetylcholine receptor (Torpedo californica).
T3 construct: also called T. californica nAChR; Torpedo nAChR
The settings on record: one partner purified.

T1 sequence (P36544 23-502): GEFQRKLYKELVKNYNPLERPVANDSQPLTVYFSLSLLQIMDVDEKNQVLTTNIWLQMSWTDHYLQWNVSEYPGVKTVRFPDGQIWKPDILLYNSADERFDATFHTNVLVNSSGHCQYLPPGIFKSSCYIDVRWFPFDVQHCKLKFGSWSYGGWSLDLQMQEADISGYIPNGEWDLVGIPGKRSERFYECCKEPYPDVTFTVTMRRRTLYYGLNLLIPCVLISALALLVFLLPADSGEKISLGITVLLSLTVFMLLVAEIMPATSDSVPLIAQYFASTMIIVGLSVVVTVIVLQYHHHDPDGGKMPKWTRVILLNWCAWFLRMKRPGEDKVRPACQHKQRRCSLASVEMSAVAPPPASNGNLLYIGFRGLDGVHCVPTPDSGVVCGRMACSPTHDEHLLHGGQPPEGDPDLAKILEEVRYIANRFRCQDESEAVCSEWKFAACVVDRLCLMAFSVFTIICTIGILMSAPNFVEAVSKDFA
T2 sequence (Q9UGM1 23-238): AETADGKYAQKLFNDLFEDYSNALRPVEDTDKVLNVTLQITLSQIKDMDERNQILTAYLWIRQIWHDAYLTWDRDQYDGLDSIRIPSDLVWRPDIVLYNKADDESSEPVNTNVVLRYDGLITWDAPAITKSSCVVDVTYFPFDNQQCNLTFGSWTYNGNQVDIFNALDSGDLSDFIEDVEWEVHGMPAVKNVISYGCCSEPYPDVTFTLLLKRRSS
T3 sequence (P02710 25-461 limits assumed, chain 1 of 4): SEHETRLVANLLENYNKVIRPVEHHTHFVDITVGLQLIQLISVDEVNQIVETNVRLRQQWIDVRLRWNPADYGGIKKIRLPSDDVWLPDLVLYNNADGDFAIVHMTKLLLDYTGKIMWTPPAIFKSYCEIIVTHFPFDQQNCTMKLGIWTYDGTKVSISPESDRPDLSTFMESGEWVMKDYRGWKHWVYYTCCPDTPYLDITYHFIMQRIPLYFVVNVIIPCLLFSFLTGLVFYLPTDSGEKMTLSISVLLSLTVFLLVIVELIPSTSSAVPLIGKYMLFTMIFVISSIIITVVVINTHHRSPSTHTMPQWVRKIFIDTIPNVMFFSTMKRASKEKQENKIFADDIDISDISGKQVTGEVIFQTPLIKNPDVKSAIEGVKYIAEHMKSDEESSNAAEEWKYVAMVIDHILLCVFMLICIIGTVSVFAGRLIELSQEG
T3 sequence (P02712 25-493 limits assumed, chain 2 of 4, further chain): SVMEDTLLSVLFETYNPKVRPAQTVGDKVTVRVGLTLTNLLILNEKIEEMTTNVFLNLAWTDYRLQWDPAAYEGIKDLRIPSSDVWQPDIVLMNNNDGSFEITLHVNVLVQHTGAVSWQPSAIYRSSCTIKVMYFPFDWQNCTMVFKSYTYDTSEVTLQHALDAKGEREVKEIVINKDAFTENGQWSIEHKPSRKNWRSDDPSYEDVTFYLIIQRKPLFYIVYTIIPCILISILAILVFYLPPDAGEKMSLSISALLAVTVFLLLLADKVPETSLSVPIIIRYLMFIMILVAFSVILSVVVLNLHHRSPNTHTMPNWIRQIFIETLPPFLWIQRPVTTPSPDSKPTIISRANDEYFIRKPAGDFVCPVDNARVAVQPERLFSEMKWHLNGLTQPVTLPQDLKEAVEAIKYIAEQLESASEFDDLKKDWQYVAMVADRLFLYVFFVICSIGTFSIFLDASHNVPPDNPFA
T3 sequence (P02714 18-506 limits assumed, chain 3 of 4, further chain): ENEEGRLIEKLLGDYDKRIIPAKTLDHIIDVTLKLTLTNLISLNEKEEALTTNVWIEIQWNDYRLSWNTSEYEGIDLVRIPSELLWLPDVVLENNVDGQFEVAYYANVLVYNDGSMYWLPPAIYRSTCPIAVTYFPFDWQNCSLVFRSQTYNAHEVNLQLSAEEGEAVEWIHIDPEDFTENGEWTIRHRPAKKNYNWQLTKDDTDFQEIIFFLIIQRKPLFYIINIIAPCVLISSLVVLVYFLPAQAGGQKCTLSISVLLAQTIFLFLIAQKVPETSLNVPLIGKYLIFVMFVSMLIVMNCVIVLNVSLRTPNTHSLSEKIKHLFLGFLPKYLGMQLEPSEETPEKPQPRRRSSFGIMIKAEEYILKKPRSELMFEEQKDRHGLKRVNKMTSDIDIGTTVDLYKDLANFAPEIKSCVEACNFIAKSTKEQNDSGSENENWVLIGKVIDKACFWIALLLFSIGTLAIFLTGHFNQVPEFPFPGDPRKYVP
T3 sequence (P02718 22-522 limits assumed, chain 4 of 4, further chain): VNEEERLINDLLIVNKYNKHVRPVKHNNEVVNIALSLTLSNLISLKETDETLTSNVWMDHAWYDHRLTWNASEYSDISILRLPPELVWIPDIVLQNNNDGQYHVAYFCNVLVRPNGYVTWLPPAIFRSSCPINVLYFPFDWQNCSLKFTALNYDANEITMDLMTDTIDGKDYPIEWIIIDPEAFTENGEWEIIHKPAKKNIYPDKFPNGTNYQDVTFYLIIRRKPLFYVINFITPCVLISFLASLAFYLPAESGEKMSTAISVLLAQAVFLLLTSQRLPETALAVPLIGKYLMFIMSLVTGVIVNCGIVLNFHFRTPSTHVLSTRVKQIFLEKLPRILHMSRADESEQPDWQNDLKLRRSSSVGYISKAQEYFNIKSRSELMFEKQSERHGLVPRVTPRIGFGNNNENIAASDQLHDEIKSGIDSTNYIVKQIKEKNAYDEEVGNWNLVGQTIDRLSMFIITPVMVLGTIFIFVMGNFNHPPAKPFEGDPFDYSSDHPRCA

B1: Lynx1 short (3), shorter loop II fragment of human Lynx1 with terminal Cys, disulfide-cyclised (peptide)
peptide: CTRTYYTPTRMC
modifications: not fully specified (bridges); cysteine pairing not given here
notes: also called peptide 3; cyclic shorter form of Lynx1 fragment
In assay [1], B1 displayed an IC50 of 58.9 µM.

B2: Lynx1 (1), synthetic loop II fragment of human Lynx1 with Cys added at both termini, disulfide-cyclised (peptide)
peptide: CTTRTYYTPTRMKVSKC
modifications: not fully specified (bridges); cysteine pairing not given here
notes: also called Lynx1 fragment (1); peptide 1
On to B2, for which the IC50 in assay [1] turned out to be 173 µM; in assay [2], 41.7 µM; in assay [3], 148 µM.

B3: Lynx1 linear (2), synthetic 15-membered loop II fragment of human Lynx1 (peptide)
peptide: TTRTYYTPTRMKVSK
notes: also called Lynx1 linear fragment (2); peptide 2
Consider B3, for which the IC50 in assay [2] was 40.7 µM.
Regarding CKMVRHQRSPYEVVRRMC (disulfide 1-18), the IC50 in assay [1] is 13.1 µM; in assay [4], 7.4 µM; in assay [2], 41.7 µM.

B4: Lynx1 short linear (4), shorter loop II fragment of human Lynx1 with free terminal Cys (peptide)
peptide: CTRTYYTPTRMC
notes: also called Lynx1 linear short (4); peptide 4
Consider B4, for which the IC50 in assay [1] came out at 69.2 µM.
